Target: T1, human CD5 cell differentiation marker (human, UniProt P06127 25-495)
T1 sequence: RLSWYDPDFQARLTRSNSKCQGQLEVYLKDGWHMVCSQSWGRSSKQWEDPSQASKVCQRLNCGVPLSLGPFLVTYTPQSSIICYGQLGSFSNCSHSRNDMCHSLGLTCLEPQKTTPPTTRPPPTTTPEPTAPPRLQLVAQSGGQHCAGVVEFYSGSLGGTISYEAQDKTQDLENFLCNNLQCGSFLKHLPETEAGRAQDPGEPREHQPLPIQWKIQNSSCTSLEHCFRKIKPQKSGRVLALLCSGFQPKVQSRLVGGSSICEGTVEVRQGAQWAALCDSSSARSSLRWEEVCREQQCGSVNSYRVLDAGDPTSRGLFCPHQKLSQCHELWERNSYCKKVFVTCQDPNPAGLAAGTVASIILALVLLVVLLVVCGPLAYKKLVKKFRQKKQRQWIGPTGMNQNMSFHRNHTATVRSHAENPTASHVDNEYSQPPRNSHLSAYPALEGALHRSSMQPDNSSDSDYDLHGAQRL
Experiment: cell-based or functional assay

B1: he3Fab-rGelA50(C44) (other)
light: DIQMTQSPSSLSASVGDRVTITCRASQDINSYLSWFQQKPGKAPKTLIYRANRLESGVPSRFSGSGSGTDYTLTISSLQYEDFGIYYCQQYDESPWTFGGGTKLEIK
heavy: EIQLVQSGGGLVKPGGSVRISCAASGYTFTNYGMNWVRQAPGKGLEWMGWINTHTGEPTYADSFKGRFTFSLDDSKNTAYLQINSLRAEDTAVYFCTRRGYDWYFDVWGQGTTVTVSS
chain: GLDTVSFSTKGATYITYVNFLNELRVKLKPEGNSHGIPLLRKKCDDPGKAFVLVALSNDNGQLAEIAIDVTSVYVVGYQVRNRSYFFKDAPDAAYEGLFKNTIKTRLHFGGSYPSLEGEKAYRETTDLGIEPLRIGIKKLDENAIDNYKPTEIASSLLVVIQMVSEAARFTFIENQIRNNFQQRIRPANNTISLENKWGKLSFQIRTSGANGMFSEAVELERANGKKYYVTAVDQVKPKIALLKFVDKDPK
modifications: Cys 44 disulfide-linked to the M2IT linker on the Fab; lysine residues of the Fab derivatized with 5-methyl-2-iminothiolane (M2IT), 1 M2IT per Fab
  IC50 (pMT), CEM Cells; whole cell cytotoxicity (inhibition of protein synthesis): 173 pMT
  IC50 (pMT), HSB2 Cells; whole cell cytotoxicity (inhibition of protein synthesis): 165 pMT

— patent publication US6649742
